According to PMC5532383:

Target: PPI peptide (…) in complex with pMHC-CD8wt monomer (HLA-A02:01)
Assay: micropipette adhesion frequency assay; biotinylated pMHC monomers on streptavidin-coated biotinylated RBCs brought into contact with single CTL clones; adhesion frequency against contact time, equilibrium at 4 s; 2D affinity AcKa in μm^4; room temperature (main figures) and 37°C (supplement)

CD8 co-receptor on human HCV-specific CTL clones (from UniProt P01732 22-235; P10966 22-210)
2D affinity (AcKa): 1e-06 μm^4
